Source: patent US20200148781A1 (HELMHOLTZ ZENTRUM M NCHEN DEUTSCHES FORSCHUNGSZENTRUM F R …, published 2020)

Target: T1, CD73 protein from lysates of U138 glioblastoma cells (human, UniProt P21589 27-549)
T1 construct: Same endogenous protein as m2, but solubilised in cell lysate for immunoprecipitation
T1 sequence (looked up): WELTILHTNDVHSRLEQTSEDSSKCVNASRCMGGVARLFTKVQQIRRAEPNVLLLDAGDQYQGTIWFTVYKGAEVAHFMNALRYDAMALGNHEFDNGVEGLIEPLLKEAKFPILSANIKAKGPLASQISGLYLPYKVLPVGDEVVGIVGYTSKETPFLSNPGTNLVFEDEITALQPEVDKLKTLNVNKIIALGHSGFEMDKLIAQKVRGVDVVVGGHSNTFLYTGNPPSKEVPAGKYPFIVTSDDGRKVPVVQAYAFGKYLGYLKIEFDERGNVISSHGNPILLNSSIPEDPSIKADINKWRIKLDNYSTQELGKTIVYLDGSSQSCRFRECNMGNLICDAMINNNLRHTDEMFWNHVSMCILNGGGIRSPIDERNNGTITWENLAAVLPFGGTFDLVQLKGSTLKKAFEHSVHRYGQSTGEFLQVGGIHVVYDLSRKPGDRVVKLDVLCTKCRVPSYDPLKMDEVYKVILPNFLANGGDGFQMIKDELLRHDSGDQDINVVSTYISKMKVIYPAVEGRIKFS
Assay: immunoprecipitation from cell lysate, immunoblot with a commercial CD73 mAb
Experimental: In this example, mAb 22E6 binding affinity was characterized (FIG. 3). It was shown that mAb 22E6 recognizes CD73 protein on cancer cells. Using a special flow cytometry technique, a fluorescence-activated cell sorting (FACS) with 22E6 and an anti-rat-IgG-specific, fluorophore-labeled secondary mAb, it was shown that the protein recognized by the 22E6 mAb of the invention is present on the surface of human cancer cells of a total of approx. 30 tested cell lines. U138 MG and GBM20 are glioblastoma cell lines, MDA-MB231 and T47D are human breast cancer cell lines. In order to compare the specificity of mAb 22E6 with the specificity of a commercial CD73 mAb an immunoblot with the same cell lines (U138 MG, GBM20, MDA-MB231 and T47D) was performed using the commercial CD73 mAb as shown in FIG. 3B.

binding result: binds
B1: mAb 22E6 (antibody, V domains shown)
VH: EVQLVESGGGLVQPGRSMKLSCAASGFTFSFYYMAWVRQAPTKGLEWVASISTGGGNTYYRDSVKGRFTISRDDAKSTLYLQMDSLRSEETATYYCARHGGDYYGYRGGYFDYWDQGVMVTVSS
VL: DIQMTQTPSSMPASLGERVTISCRASQGINNYLNWYQQKPDGTIKPLIYYTSNLQSGVPSRFSGSGSGTDYSLTISSLEPEDFAMYYCQQYDNSPYTFGAGTKLELK
notes: Rat monoclonal antibody from a hybridoma (rats immunized with EVs of the glioblastoma line GBM20); It was detected with an anti-rat-IgG secondary mAb; also called 22E6 mAb; monoclonal antibody termed "22E6"
